US20210063414A1, “METHODS FOR PREVENTING AND/OR TREATING BONE LOSS CONDITIONS BY MODULATING IRISIN” (Dana-Farber Cancer Institute, Inc., priority 2018, published 2021)

Target: T1, MLO-Y4 cell surface proteins (Mus musculus, UniProt P70388)
T1 construct: endogenous in cells; host or cells: MLO-Y4
T1 sequence (P70388 1-1312): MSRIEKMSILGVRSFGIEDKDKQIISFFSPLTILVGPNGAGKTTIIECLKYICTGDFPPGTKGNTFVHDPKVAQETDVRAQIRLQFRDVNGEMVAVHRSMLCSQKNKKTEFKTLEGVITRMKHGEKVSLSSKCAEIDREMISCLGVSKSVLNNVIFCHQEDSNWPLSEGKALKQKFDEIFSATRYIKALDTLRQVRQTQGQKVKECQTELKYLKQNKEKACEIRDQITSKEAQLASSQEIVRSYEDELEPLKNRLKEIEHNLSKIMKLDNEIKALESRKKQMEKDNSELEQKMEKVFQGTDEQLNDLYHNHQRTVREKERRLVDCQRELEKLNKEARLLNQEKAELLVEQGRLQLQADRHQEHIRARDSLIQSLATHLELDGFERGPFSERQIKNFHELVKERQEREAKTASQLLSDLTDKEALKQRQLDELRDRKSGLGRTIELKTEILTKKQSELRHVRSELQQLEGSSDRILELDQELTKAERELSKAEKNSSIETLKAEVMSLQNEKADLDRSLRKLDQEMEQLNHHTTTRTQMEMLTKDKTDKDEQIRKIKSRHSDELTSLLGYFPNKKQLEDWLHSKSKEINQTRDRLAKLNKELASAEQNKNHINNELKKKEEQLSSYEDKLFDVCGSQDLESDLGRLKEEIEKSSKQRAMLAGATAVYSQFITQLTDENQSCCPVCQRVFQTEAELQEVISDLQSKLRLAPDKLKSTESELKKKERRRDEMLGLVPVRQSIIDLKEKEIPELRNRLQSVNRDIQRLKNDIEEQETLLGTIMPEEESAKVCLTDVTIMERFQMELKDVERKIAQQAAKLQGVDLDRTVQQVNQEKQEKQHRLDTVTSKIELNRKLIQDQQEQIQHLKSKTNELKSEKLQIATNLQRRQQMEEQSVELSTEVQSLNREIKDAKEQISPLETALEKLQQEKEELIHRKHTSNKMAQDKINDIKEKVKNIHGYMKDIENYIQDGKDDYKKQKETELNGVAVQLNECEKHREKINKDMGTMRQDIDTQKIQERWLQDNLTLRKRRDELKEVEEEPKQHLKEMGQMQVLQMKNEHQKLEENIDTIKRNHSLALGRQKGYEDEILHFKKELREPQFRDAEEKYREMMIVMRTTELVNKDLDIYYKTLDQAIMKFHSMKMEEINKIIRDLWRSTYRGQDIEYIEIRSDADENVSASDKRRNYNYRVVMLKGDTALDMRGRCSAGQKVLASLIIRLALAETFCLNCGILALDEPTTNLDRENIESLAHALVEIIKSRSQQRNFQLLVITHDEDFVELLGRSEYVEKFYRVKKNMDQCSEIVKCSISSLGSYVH
Experiment: Crosslinking/co-immunoprecipitation/mass spectrometry (TMT quantitative proteomics) to identify irisin receptors
Assay type: binding
Conditions: co-precipitated protein Rad50 (RAD50_MOUSE)
Outline: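 Mouse MLO-Y4 cells were switched to serum-free FreeStyle medium for 4 h, chilled, then exposed to 10 nM His-tagged irisin (or adipsin as control) for 20 min. Cells were crosslinked with 1.5 mM DTSSP (30 min, ice), and bound proteins were pulled down on Ni-NTA and eluted with 250 mM imidazole. Eluates were separated by SDS-PAGE, trypsin-digested in gel, TMT 6-plex labelled and quantified by MS3-based LC-MS/MS on an Orbitrap Fusion Lumos.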

- TMT signal-to-noise ratio: 422.246
Substance: adipsin
